Laboratory results taken from publication PMC13470446.

Biological target: microtubule polymers
Conditions: domain or fragment; chains chain; Polymerised alpha/beta-tubulin heterodimers (one repeat given). Source is not printed (assay 'as previously described' in a cited paper); commercial mammalian brain tubulin is assumed, porcine taken as likeliest (bovine possible). Brain tubulin is an isotype mixture with heterogeneous PTMs (acetyl-Lys40, detyrosination, polyglutamylation); TUBA1B and the pig beta chain are representatives only. GT; modification not given

B1: Smc5 hinge domain (residues 215–885), Q08204 215-885 (protein)
chain: LRELQGNEQSLQKDLDFKKAKIVHLRQESDKLRKSVESLRDFQNKKGEIELHSQLLPYVKVKDHKEKLNIYKEEYERAKANLRAILKDKKPFANTKKTLENQVEELTEKCSLKTDEFLKAKEKINEIFEKLNTIRDEVIKKKNQNEYYRGRTKKLQATIISTKEDFLRSQEILAQTHLPEKSVFEDIDIKRKEIINKEGEIRDLISEIDAKANAINHEMRSIQRQAESKTKSLTTTDKIGILNQDQDLKEVRDAVLMVREHPEMKDKILEPPIMTVSAINAQFAAYLAQCVDYNTSKALTVVDSDSYKLFANPILDKFKVNLRELSSADTTPPVPAETVRDLGFEGYLSDFITGDKRVMKMLCQTSKIHTIPVSRRELTPAQIKKLITPRPNGKILFKRIIHGNRLVDIKQSAYGSKQVFPTDVSIKQTNFYQGSIMSNEQKIRIENEIINLKNEYNDRKSTLDALSNQKSGYRHELSELASKNDDINREAHQLNEIRKKYTMRKSTIETLREKLDQLKREARKDVSQKIKDIDDQIQQLLLKQRHLLSKMASSMKSLKNCQKELISTQILQFEAQNMDVSMNDVIGFFNEREADLKSQYEDKKKFVKEMRDTPEFQSWMREIRSYDQDTKEKLNKVAEKYEEEGNFNLSFVQDVLDKLESEIAMVNHDES
Question: Which Kd does the source give for B1 here?
Answer: 690 nM
